Results from the DeepSol protein solubility set.

Test: soluble on expression in E. coli; label from the status in PepcDB or PDB records

Sequence	soluble on expression in E. coli
MGSDKIHHHHHHMHSMRLSQIQDFIAVAEGGSIRAAARTRDVSAPALTKSIRQLEDELHVPLLTRTTRGVVLSHYGEAFLRRARLIATEARRATEEMTQMLGARTGTVRIGVTGGPAHLLLPAALNRFRRQHPEVQVYIDSGRSAVHLQDLRAGLIDVAVSPIPDEGIDHDFICEPLYNNDSVVVAHQDHPLRHARTLRELVGSEWILTTCRMHGPGAAIMDAFRAQDLPLPRVAVRCDTFNLIQALLQNRRLLCMVARQLMQDRVGASTGLAVLPIEDPLPSHTVCLIYRADSPMPPVVASFAAQLRREAHYLINMPDSPLKRPGAPPEPRDDKPVETADIAV	not soluble
MGSDKIHHHHHHMIDFDSLTHDQQLGILQETAEAATANYDLPADVSVDMINLSENATYKIAARDGRRWALRIHRDGYHSRTAIQSELAWLTDLRQTGIVLTPVPVAGKDGEQIQRVGHARLAQPRHVVLSQWETGSEPGIGEALGEPFELLGEVTARMHIHARQWKRPSWFSRHVWDFETSLGEERPHWGRWRDGIGVDAAKARLFGRTAELIGRRLAAFGKGHDRFGLIHCDLRLANLLIDGKTVKVIDFDDCGFGWYMYDAATPISFYEHEPQAADLIRSWTTGYRRVLDLPKADEDEIPTFVMLRRLLLVAWIGSHAETDLAKSMGLPYTEGTVGLCEAYLSKF	not soluble
MGSDKIHHHHHHMIDIHCHILPEIDDGPSSLEESLVMAREAVKEGITKIIATPHHLHPSYNNKAAVVKEKVRKLNEAIQKENIPLEILPGQEVRISGDVMDGLVSGDILTLADQGKYLFVEFSSNHVSRYADKLFFQLLSQDIIPIIVHPERNHEFLKNPGLLYDLVNGGALTQITTSSLTGHLGKKIKKFTEQIIEADLTHFLASDAHNVTERTFRIREAFALVEKNYGSSKAYEFQENAELLVENQHVMGPPPQPIVKKKLLGIF	not soluble
MGSDKIHHHHHHMIDPAGRTTAWEYDAYGSLLVQTLPDGSAVRTEFDLDHRPVCMTLIGGRQWGYEWNTFGNLLAQSDPSGAISRYTYDEYGQLVEHTGPRGASTRFDYHPDGNLAAQIDALGHRTQYRYDARGYLGEAIDALGQQSQYEYDRNGHLTRAIEPGGREIHCAYDADGNLSRHRDPMGHVTQMEYSALGQVSRRLAPDGTTVEYRYDTEEQLIGVVNERSELYALERDALGRIVVETDYWGQARRYRYGAAGELLCSTDPLGQTVEYRYDWLGRIVQKRVPHPEQDEALQIDSFAYDRHGDLVLAENPSCRVEFDYDAAGRMIEERQGDDFTIASDYDEAVTCPLR	not soluble
MGSDKIHHHHHHMIDVAIIGGGHNGLVTAAYLAKAGLKVAVFERREIVGGASVTEELWPSIKVSTGAYVLSLLRPKIIEELKLREFGLKVYLKDPGLFLPFENGKKLYIWSSLEKTKKEIEKFSKNDAKNYKKWVKFWDLFAEMADFFMLNPPPHIDEASNLINIFRGNVNEELALSFLRTFMQDAKSLLDEYFETDEVKSALAEDSVVGTFASPSTPGTAYVLAHHVIGEVNGVKGAWGYVEGGMGEVTQALKRSAEHLGVEIYTNAEVDEVLVKNGRVEGIKLKNGKTINAKIIVSNADPKTTFFKLLRNAELEEDFLRRVRALKNVGVSFKIVGYLEELPDFGNGKSLSPEHIASELIMPNMEYIEKAYDDARALGYSREPWLSINIQSSVDPTVAPPGKFSFSIFGQYLVYDSKRNDEMKEKIAEITFEKIKEFAPNFKPIKYEVLTPLDIERRFGINGGNIFHLDMTPDQLYFFRPLIGYSDYTTPIRGLYLCGSGTHPGGGVTGAPGYNAHVKILEDLRKGIYK	not soluble
MGSDKIHHHHHHMIEVEIDKDSGFCFGVVTAIESAERELGNTDTLYCLGDIVHNSLEVERLEHMGLHTIDHEGLSRLRDRKVLLRAHGEPPSTYALAKRNNITIIDATCPVVLRLQRKIHKCYQETRANNTQLVIYGKKGHAEVNGLVGQTEGTAIVIEKIEDLDRLDFTRAISLFSQTTKSLDGFKAVVAEIKQRMAEGVEFNYYDTICRQVANRLPNIKAFASSHDWVYFVAGRKSSNGKMLFEECRKANPNTLFISEVSEITEPLPEGVRRVGVCGATSTPKWLMEEVAVRIKELNASE	not soluble
MGSDKIHHHHHHMIFELPDTTTQQISKTLTRLRESGTQVTTGRVLTLIVVTDSESDVAAVTESTNEASREHPSRVIILVVGDKTAENKVDAEVRIGGDAGASEMIIMHLNGPVADKLQYVVTPLLLPDTPIVAWWPGESPKNPSQDPIGRIAQRRITDALYDRDDALEDRVENYHPGDTDMTWARLTQWRGLVASSLDHPPHSEITSVRLTGASGSTSVDLAAGWLARRLKVPVIREVTDAPTVPTDEFGTPLLAIQRLEIVRTTGSIIITIYDAHTLQVEMPESGNAPSLVAIGRRSESDCLSEELRHMDPDLGYQHALSGLSSVKLETV	not soluble
MGSDKIHHHHHHMIFKRKVYDKLIEWKTLAAGTSAVLLEGARRIGKSTIVEEFAKKEYDDYMILDFARENQDVKNNFVENMNDLDTFFRNLFLLKGKRLKGKNCVIIFDEVQLFPQARQAIKYLVADGRYEYIETGSLISIRKNVKDILIPSEEYRIKMYPMDFEEYLWAINDEVTIPTIRESFEKRKPLGDAIHRRIMKSFRTYMVVGGMPQAVDAYVSGKSYEQIDFVKRNILSLYEEDLAKYDTENREKASVIYRTIPEQLENKNSHFKLSMVDKNARYQNYMDAVSFISEAMIGNECINVTKPEVALELFADRSNFKLYMGDTGLLVTQIMKNRDSTDEDLYKALIIDNLGINQGMIVENIVAQMLRAAGHELYFHEYLYVPEGTTREKKYEIDFMIVKKKKICPIEVKSSNYMSHKSFDYLIQKYQLKCENRFIIYTKDLKYQDGIMYIPIYMTMLL	not soluble
MGSDKIHHHHHHMIGKFFASINLSDVAAMAGIPISFMTAYSISPEIEISFLEDIESGIMKVLKMYDVDFIGGDLKEGMDLILTGIAIGKQKKTLTRKRSDIGRKQMVAYTNKLGRAASGYIFYKSGYDSVEGINMMLGITPRLEEARIISEYGAKFMMDLSDGLYSSLNQMKADYGVGFKIVEDEVVYDDSARKAAEISGASVYDIACGYGGDYELLFTVPEENYRDFAQAMESNNIEVHFIGETWEGENIVFDGKTWTKMKDEGYEHFRPKPQLGEIR	not soluble
MGSDKIHHHHHHMIHITSLDDGLELFKALGSDIRIQILKILLENNQMSMNQIANELNISNGALTGHIKKLEECGLISASNDSSGHGNQKLCSLIQDRILVEIEKPIDLSNVYNTSIKVGQFSSHNICPTCGLATSSFVIGELDDVRYFDHPDHFNADIMWFTKGYVEYVIPNLIPRNQKITQLSLSAEISSEAPGIDNDWPSDISFYINDTLVGTWTSPGDYGDVRGMFTPEWWPQNWNQYGLLKLLVINHKGTFIDGLKISDITTSELKLDYTSTIRFRIAVEEDSAHVGGLTIFGKSFGNYDQDIVVSINYEPLDTEKNTK	not soluble
MGSDKIHHHHHHMIIHEITEECFKKYGKVIDSIDLTELVSTMQTVEIPADVVYEPSISALEKLKCATELQQKTYGELPIQIGWCIGNNHKLNAVEYHRCSEVNIAATDAILILGRQQDISVENTYDTSLMEAFRIPSGTAVELYATTLHYAPCNASAGGFLVAVVLPKGTNEALEHPHTGGEDALLAAKNKWLIGHPEGGLPDGSYIGLTGENLEIK	not soluble
MGSDKIHHHHHHMIIQRVVLNSRPGKNGNPVAENFRVEEFSLLDALNEGQVQVRTLYLSVDPYMRCKMNEDTGTDYLAPWQLAQVADGGGIGIVEESKHQKLAKGDFVTSFYWPWQTKAILDGNGLEKVDPQLVDGHLSYFLGAIGMPGLTSLIGVQEKGHISAGSNQTMVVSGAAGACGSLAGQIGHLLGCSRVVGICGTQEKCLFLTSELGFDAAVNYKTGNVAEQLREACPGGVDVYFDNVGGDISNTVISQMNENSHIILCGQISQYNKDVPYPPPLPPAVEAIRKERNITRERFTVLNYKDKFEPGILQLSQWFKEGKLKVKETVAKGLENMGVAFQSMMTGGNVGKQIVCISEDSSL	soluble
MGSDKIHHHHHHMIITVINGSPRKNGATSKVLTYLYKDIERLIPDVKINYFDLSEVNPSYCIGCLNCYKMGKCINQNDKVEYIHDIITKSDGVIFGSPTYGSSVTGLFKVFTDRAHMMLERLLYRKPCIAVTTYENARGSKAISFIKSMVLDSGGYVCGSLSIKTGFNQNPITEKVESKIQKVSKKFIYCIEEKKNPPVLSQIYNFIAINAVLKPMAFKDIEQYKGIIDRWEEQGII	not soluble
MGSDKIHHHHHHMIKIETVLDILKKDGLFREIIDQGHYHYNYSKVIFDSISYDSRKVTEDTLFFAKGAAFKKEYLLSAITQGLAWYVAEKDYEVGIPVIIVNDIKKAMSLIAMEFYGNPQEKLKLLAFTGTKGKTTAAYFAYNILSQGHRPAMLSTMNTTLDGETFFKSALTTPESIDLFDMMNQAVQNDRTHLIMEVSSQAYLVKRVYGLTFDVGVFLNISPDHIGPIEHPSFEDYFYHKRLLMEKSRAVIINSDMDHFSVLKEQVEDQDHDFYGSQFDNQIENSKAFSFSATGKLAGDYDIQLIGNFNQENAVAAGLACLRLGASLEDIKKGIAATRVPGRMEVLTQKNGAKVFIDYAHNGDSLKKLINVVETHQTGKIALVLGSTGNKGESRRKDFGLLLNQHPEIQVFLTADDPNYEDPMAIADEISSYINHPVEKIADRQEAIKAAMAITNHELDAVIIAGKGADCYQIIQGKKESYPGDTAVAENYL	not soluble
MGSDKIHHHHHHMIKLKTFGSFTVGNDISSVQEGAWRSEKLEKLFVYLAMNRNRGVCIEDISEAIWQVEEETDNPVGALKNLAYRLRKALRDASFDEECIVSVRGGLYKWNDDVEVTIDVEEFDRYINEAEMAFCRSKETAIESYEKAIALYHGDFLPLRTDTHWFMTLNAFYHSRYVNTVKALAKLYIDTGCYEKLEQLCIRAIVYERSDEQIYSYLIMARMRTKKVQMAFDTYETAKAIMDKDLGVRKTVMLNKVYEELLSVTKGVSSYNIDEVKEDINEESMEGVFMCGYPVFKEIYHLEVRKSARSTIPESLVLVTVVPMYSSQPDKNHSQMKDSMHTLERALRKCLRVGDVAAKYSDSQYIVLLSKCSCDTASDVMKRIIDRFNHTCDTHSNMTIHFDIEPVSCYSSFVSDK	not soluble
MGSDKIHHHHHHMIKRRYMRTRQLKPGMIIDQVIKDPTGRNLVVQGSAIDDYIISSLLKLGIMSVYIREGNADPDDPDAILSPKAAAMVKQLRTDDRSKVTLSDSVRQRVSTGVQYIFNNTNSEELTQATNQIADSLMEAINENDAIAVDISSLKTSDEYTFKHSVDVATISMILAKQMKLPDNEIHDIGVSGLLHDIGKTMIPNEILNKPGRLTDDEFNIMKKHSVYGYNMLKDRKDLNNSILMGVLQHHERIDGTGYPLGFDAPKICQFAKILSVADVYDALVTKRPYKDALSQRDAVEMLMSMTNQLDIGVMRAFMSSMILYPVDSIVQLSNGEKARVVKNSEYYILRPTVVGVDSGRVYNLGNDLKCASIIIL	not soluble
MGSDKIHHHHHHMILFEWGTYNALSTLKQAALLGTRITEIPPAVLSRRLPSGYYESYKKLGGEYFTSILAHGPYYSLSSEKGLKGHLSAIEKATLCGAEIYNYHLGKRVGDDLNYHLEVLKKFSEVNNEMIYSPEPATNIGEFGTLDELEELIKAAKEEDIKIIPSLQLENIFLNELGVYEKDDLDEAAEKADVDWWLKIFRRMDKISDYIMHFRFSQVIGLKYGKRFYKKRVPLGKGYPPVEPLTEALATYLVDNATRGGFKKVLFVYTGLPEVKYRDLIDLYAMIMKKSIDKLMSRESQVEYGDFYKVMSSEEEE	not soluble
MGSDKIHHHHHHMILSRGRNYVFIHIPKTGGTALALALESRAMAGDEMLGDTPKAVKRRRRLHGTETRGRLWKHSTLADIEGLASREELRQMFAFTLVRNPFDRVVSLYHWLKEQSFDHPMVPLAHSLPFTSFVTDPLVMRALKSQPALSYMMQSDGYEHCSLYIRLEYFAKDAAPLFDHLGFALELPRVNESRRDPDWRVYYDSQAVDAVRTCCQLEIERFEYSFNDYPLSL	not soluble
